Experimental data taken from IntAct's records for PubMed 20371544.

B1: Muscle, skeletal receptor tyrosine-protein kinase (Mus musculus), Q61006 (parent)
chain: MRELVNIPLLQMLTLVAFSGTEKLPKAPVITTPLETVDALVEEVATFMCAVESYPQPEISWTRNKILIKLFDTRYSIRENGQLLTILSVEDSDDGIYCCIANNGVGGAVESCGALQVKMKPKITRPPINVKIIEGLKAVLPCTTMGNPKPSVSWIKGDNALRENSRIAVLESGSLRIHNVQKEDAGQYRCVAKNSLGTAYSKLVKLEVEVFARILRAPESHNVTFGSFVTLRCTAIGIPVPTISWIENGNAVSSGSIQESVKDRVIDSRLQLFITKPGLYTCIATNKHGEKFSTAKAAATVSIAEWSKSQKDSQGYCAQYRGEVCDAVLAKDALVFFNTSYRDPEDAQELLIHTAWNELKAVSPLCRPAAEALLCNHLFQECSPGVVPTPMPICREYCLAVKELFCAKEWQAMEGKAHRGLYRSGMHLLPVPECSKLPSMHRDPTACTRLPYLDYKKENITTFPSITSSRPSADIPNLPASTSSFAVSPAYSMTVIISIVSSFALFALLTIATLYCCRRRKEWKNKKRESTAVTLTTLPSELLLDRLHPNPMYQRMPLLLNPKLLSLEYPRNNIEYVRDIGEGAFGRVFQARAPGLLPYEPFTMVAVKMLKEEASADMQADFQREAALMAEFDNPNIVKLLGVCAVGKPMCLLFEYMAYGDLNEFLRSMSPHTVCSLSHSDLSTRARVSSPGPPPLSCAEQLCIARQVAAGMAYLSERKFVHRDLATRNCLVGETMVVKIADFGLSRNIYSADYYKADGNDAIPIRWMPPESIFYNRYTTESDVWAYGVVLWEIFSYGLQPYYGMAHEEVIYYVRDGNILACPENCPLELYNLMRLCWSKLPADRPSFCSIHRILQRMCERAEGTVGV
partner: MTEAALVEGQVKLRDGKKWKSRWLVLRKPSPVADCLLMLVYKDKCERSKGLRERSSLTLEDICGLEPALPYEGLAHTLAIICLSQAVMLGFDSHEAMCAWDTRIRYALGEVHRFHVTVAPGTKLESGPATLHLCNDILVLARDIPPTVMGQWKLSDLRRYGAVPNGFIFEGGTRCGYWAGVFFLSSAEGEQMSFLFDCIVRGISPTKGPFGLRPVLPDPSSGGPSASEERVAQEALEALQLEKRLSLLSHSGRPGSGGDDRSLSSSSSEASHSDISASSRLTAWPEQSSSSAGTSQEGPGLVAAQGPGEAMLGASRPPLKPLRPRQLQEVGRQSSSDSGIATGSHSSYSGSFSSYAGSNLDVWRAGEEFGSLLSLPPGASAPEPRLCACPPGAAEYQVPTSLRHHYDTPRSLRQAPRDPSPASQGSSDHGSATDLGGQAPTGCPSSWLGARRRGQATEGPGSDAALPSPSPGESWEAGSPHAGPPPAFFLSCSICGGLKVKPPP

Variants of: B1
Details: with dok7_mouse Dok7, Q18PE0

Variant	effect of a mutation on the interaction
M604I	decreasing interaction
A726V	disrupting interaction
